Assay results reported in article PMC9482650, “Quantitative fragmentomics allow affinity mapping of interactomes” (Nature Communications, 2022).

T1: APBA3_1, O96018
T1 sequence (O96018 389-490, limits assumed, looked up): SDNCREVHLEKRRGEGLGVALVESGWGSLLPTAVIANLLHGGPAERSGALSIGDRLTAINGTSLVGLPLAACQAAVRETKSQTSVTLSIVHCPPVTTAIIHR

T2: ARHGEF11, O15085
T2 sequence (O15085 42-136, limits assumed, looked up): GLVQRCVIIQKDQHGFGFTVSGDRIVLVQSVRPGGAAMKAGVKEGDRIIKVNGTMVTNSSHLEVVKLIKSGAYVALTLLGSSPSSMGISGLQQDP

T3: GRIP1_4, Q9Y3R0
T3 sequence (Q9Y3R0 467-571, limits assumed, looked up): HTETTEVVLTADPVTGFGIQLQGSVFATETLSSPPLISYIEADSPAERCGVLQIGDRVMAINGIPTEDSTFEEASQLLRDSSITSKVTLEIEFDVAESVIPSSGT

T4: HTRA4, P83105
T4 sequence (P83105 378-476, limits assumed, looked up): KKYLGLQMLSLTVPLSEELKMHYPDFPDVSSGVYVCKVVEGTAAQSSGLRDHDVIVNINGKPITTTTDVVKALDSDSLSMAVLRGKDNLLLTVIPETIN

T5: LIN7C, Q9NUP9
T5 sequence (Q9NUP9 88-185, limits assumed, looked up): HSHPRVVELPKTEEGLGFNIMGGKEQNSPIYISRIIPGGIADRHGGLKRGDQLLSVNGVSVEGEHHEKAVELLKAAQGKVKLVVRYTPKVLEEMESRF

T6: LNX2_3, Q8N448
T6 sequence (Q8N448 463-564, limits assumed, looked up): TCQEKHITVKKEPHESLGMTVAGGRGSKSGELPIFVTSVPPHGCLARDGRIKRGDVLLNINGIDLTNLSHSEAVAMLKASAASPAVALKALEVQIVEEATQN

T7: NHERF3_4, Q5T2W1
T7 sequence (Q5T2W1 373-468, limits assumed, looked up): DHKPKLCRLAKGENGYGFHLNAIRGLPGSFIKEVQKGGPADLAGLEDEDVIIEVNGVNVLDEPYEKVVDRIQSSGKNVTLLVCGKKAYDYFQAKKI

T8: PDZD2_2, O15018
T8 sequence (O15018 329-429, limits assumed, looked up): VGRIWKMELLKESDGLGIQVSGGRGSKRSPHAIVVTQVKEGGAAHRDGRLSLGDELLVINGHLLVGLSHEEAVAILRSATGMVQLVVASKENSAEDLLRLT

T9: PDZRN3_1, Q9UPQ7
T9 sequence (Q9UPQ7 244-349, limits assumed, looked up): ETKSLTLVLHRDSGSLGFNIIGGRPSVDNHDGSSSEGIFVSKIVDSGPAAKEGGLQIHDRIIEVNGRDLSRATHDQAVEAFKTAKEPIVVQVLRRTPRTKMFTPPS

T10: SNTB1, Q13884
T10 sequence (Q13884 107-205, limits assumed, looked up): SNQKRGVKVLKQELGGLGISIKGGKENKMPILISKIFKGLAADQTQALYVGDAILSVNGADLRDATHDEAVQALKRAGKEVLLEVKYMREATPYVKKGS

T11: SNTG2, Q9NY99
T11 sequence (Q9NY99 68-166, limits assumed, looked up): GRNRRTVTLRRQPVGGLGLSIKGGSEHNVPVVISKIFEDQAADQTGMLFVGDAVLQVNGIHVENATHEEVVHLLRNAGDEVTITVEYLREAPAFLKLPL

T12: TIAM2, Q8IVF5
T12 sequence (Q8IVF5 885-986, limits assumed, looked up): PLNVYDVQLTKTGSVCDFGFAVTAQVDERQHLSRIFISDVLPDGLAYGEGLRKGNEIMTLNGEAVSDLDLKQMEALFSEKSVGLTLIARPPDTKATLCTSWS

B1: CLDN20, P56880 (peptide)
chain: NSTHNLKDYV
B2: TMEM178A, Q8NBL3 (peptide)
chain: QLKSGRDSTV
B3: TNRC6B, Q9UPQ9 (peptide)
chain: DLLGGGSDSI
B4: SORCS3, Q9UPU3 (peptide)
chain: TKEIPNCTSV

What follows are binders tested against AHNAK1, Q09666 (assay: holdup assay). Conditions: plain residues with an end cap or a label only (N-terminal biotin on a linker: ado-ado).
Chain of AHNAK1, Q09666 (Q09666 4-100): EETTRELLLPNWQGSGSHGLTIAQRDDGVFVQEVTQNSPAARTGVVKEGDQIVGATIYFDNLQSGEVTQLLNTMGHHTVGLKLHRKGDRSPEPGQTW
Set-up: key: below the threshold = too weak to quantify, mostly under pKd 3.1 to 4

Binder | pKd
B1 | below the threshold
B2 | 3.55
B3 | below the threshold
B4 | below the threshold

The binders below were run against T1, APBA3_1, O96018 (assay: holdup assay). Conditions: plain residues with an end cap or a label only (N-terminal biotin on a linker: ado-ado).
Set-up: key: below the threshold = too weak to quantify, mostly under pKd 3.1 to 4

Binder | pKd
B1 | below the threshold
B2 | below the threshold
B3 | below the threshold
B4 | below the threshold

Each binder was assayed against T2, ARHGEF11, O15085 (assay: holdup assay). Conditions: plain residues with an end cap or a label only (N-terminal biotin on a linker: ado-ado).
Set-up: key: below the threshold = too weak to quantify, mostly under pKd 3.1 to 4

Binder | pKd
B1 | below the threshold
B2 | 4.11
B3 | 3.65
B4 | 4.82

What follows are binders tested against DLG1_3, Q12959 (assay: holdup assay). Conditions: plain residues with an end cap or a label only (N-terminal biotin on a linker: ado-ado).
Chain of DLG1_3, Q12959 (Q12959 457-571): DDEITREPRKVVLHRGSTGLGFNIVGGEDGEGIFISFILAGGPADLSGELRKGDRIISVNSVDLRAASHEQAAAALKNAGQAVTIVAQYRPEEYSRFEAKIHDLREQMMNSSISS
Set-up: key: below the threshold = too weak to quantify, mostly under pKd 3.1 to 4

Binder | pKd
B1 | below the threshold
B2 | 3.85
B3 | below the threshold
B4 | 4.14

What follows are binders tested against DLG2_2, Q15700 (assay: holdup assay). Conditions: plain residues with an end cap or a label only (N-terminal biotin on a linker: ado-ado).
Chain of DLG2_2, Q15700 (Q15700 189-283): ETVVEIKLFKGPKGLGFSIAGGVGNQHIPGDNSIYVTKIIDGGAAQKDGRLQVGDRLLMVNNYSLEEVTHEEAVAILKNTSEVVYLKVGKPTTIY
Set-up: key: below the threshold = too weak to quantify, mostly under pKd 3.1 to 4

Binder | pKd
B1 | below the threshold
B2 | 4.4
B3 | below the threshold
B4 | 4.1

What follows are binders tested against FRMPD2_2, Q68DX3 (assay: holdup assay). Conditions: plain residues with an end cap or a label only (N-terminal biotin on a linker: ado-ado).
Chain of FRMPD2_2, Q68DX3 (Q68DX3 944-1038): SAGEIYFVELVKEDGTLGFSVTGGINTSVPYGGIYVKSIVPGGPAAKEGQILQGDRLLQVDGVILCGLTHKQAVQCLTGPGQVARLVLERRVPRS
Set-up: key: below the threshold = too weak to quantify, mostly under pKd 3.1 to 4

Binder | pKd
B1 | below the threshold
B2 | below the threshold
B3 | below the threshold
B4 | 4.21

Each binder was assayed against T3, GRIP1_4, Q9Y3R0 (assay: holdup assay). Conditions: plain residues with an end cap or a label only (N-terminal biotin on a linker: ado-ado).
Set-up: key: below the threshold = too weak to quantify, mostly under pKd 3.1 to 4

Binder | pKd
B1 | below the threshold
B2 | 3.56
B3 | below the threshold
B4 | below the threshold

These binders were tested against T4, HTRA4, P83105 (assay: holdup assay). Conditions: plain residues with an end cap or a label only (N-terminal biotin on a linker: ado-ado).
Set-up: key: below the threshold = too weak to quantify, mostly under pKd 3.1 to 4

Binder | pKd
B1 | below the threshold
B2 | below the threshold
B3 | below the threshold
B4 | 4.44

These binders were tested against IL16_4, Q14005 (assay: holdup assay). Conditions: plain residues with an end cap or a label only (N-terminal biotin on a linker: ado-ado).
Chain of IL16_4, Q14005 (Q14005 1229-1329): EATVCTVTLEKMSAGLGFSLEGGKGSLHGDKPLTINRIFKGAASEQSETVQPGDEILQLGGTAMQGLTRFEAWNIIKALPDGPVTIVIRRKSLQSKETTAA
Set-up: key: below the threshold = too weak to quantify, mostly under pKd 3.1 to 4

Binder | pKd
B1 | 3.65
B2 | 3.83
B3 | 3.61
B4 | below the threshold

Each binder was assayed against Inadl_3, Q8NI35 (assay: holdup assay). Conditions: plain residues with an end cap or a label only (N-terminal biotin on a linker: ado-ado).
Chain of Inadl_3, Q8NI35 (Q8NI35 359-469): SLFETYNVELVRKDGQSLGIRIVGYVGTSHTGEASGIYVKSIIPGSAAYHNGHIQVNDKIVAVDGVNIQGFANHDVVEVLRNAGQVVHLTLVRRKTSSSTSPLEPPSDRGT
Set-up: key: below the threshold = too weak to quantify, mostly under pKd 3.1 to 4

Binder | pKd
B1 | below the threshold
B2 | below the threshold
B3 | below the threshold
B4 | below the threshold

Each binder was assayed against Inadl_6, Q8NI35 (assay: holdup assay). Conditions: plain residues with an end cap or a label only (N-terminal biotin on a linker: ado-ado).
Chain of Inadl_6, Q8NI35 (Q8NI35 1058-1167): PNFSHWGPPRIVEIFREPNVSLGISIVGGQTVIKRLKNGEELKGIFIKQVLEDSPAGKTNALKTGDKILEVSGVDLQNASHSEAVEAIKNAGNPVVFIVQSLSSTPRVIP
Set-up: key: below the threshold = too weak to quantify, mostly under pKd 3.1 to 4

Binder | pKd
B1 | below the threshold
B2 | below the threshold
B3 | below the threshold
B4 | below the threshold

These binders were tested against LAP2, Q96RT1 (assay: holdup assay). Conditions: plain residues with an end cap or a label only (N-terminal biotin on a linker: ado-ado).
Chain of LAP2, Q96RT1 (Q96RT1 other isoform, or with tags, fused parts or gaps): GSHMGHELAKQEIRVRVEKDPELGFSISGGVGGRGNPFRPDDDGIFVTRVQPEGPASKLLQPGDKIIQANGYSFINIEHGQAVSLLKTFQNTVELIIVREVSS
Set-up: key: below the threshold = too weak to quantify, mostly under pKd 3.1 to 4

Binder | pKd
B1 | below the threshold
B2 | 3.63
B3 | below the threshold
B4 | 3.98

The binders below were run against T5, LIN7C, Q9NUP9 (assay: holdup assay). Conditions: plain residues with an end cap or a label only (N-terminal biotin on a linker: ado-ado).
Set-up: key: below the threshold = too weak to quantify, mostly under pKd 3.1 to 4

Binder | pKd
B1 | below the threshold
B2 | 4.13
B3 | 3.48
B4 | below the threshold

Each binder was assayed against LNX1_2, Q8TBB1 (assay: holdup assay). Conditions: plain residues with an end cap or a label only (N-terminal biotin on a linker: ado-ado).
Chain of LNX1_2, Q8TBB1 (Q8TBB1 371-470): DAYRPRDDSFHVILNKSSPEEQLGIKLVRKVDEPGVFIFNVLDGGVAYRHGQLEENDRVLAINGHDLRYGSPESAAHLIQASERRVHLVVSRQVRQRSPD
Set-up: key: below the threshold = too weak to quantify, mostly under pKd 3.1 to 4

Binder | pKd
B1 | below the threshold
B2 | 3.84
B3 | below the threshold
B4 | 3.78

What follows are binders tested against LNX1_3, Q8TBB1 (assay: holdup assay). Conditions: plain residues with an end cap or a label only (N-terminal biotin on a linker: ado-ado).
Chain of LNX1_3, Q8TBB1 (Q8TBB1 500-596): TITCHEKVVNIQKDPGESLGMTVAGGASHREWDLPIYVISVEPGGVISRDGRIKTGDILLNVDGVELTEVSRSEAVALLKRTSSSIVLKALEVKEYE
Set-up: key: below the threshold = too weak to quantify, mostly under pKd 3.1 to 4

Binder | pKd
B1 | below the threshold
B2 | below the threshold
B3 | below the threshold
B4 | below the threshold

These binders were tested against T6, LNX2_3, Q8N448 (assay: holdup assay). Conditions: plain residues with an end cap or a label only (N-terminal biotin on a linker: ado-ado).
Set-up: key: below the threshold = too weak to quantify, mostly under pKd 3.1 to 4

Binder | pKd
B1 | below the threshold
B2 | below the threshold
B3 | below the threshold
B4 | below the threshold

The binders below were run against MAGI2_4, Q86UL8 (assay: holdup assay). Conditions: plain residues with an end cap or a label only (N-terminal biotin on a linker: ado-ado).
Chain of MAGI2_4, Q86UL8 (Q86UL8 772-865): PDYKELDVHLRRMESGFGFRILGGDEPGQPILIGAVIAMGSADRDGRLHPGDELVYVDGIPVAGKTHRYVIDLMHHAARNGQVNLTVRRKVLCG
Set-up: key: below the threshold = too weak to quantify, mostly under pKd 3.1 to 4

Binder | pKd
B1 | below the threshold
B2 | 3.92
B3 | below the threshold
B4 | 4.16

Each binder was assayed against T7, NHERF3_4, Q5T2W1 (assay: holdup assay). Conditions: plain residues with an end cap or a label only (N-terminal biotin on a linker: ado-ado).
Set-up: key: below the threshold = too weak to quantify, mostly under pKd 3.1 to 4

Binder | pKd
B1 | below the threshold
B2 | 3.58
B3 | below the threshold
B4 | below the threshold

Each binder was assayed against T8, PDZD2_2, O15018 (assay: holdup assay). Conditions: plain residues with an end cap or a label only (N-terminal biotin on a linker: ado-ado).
Set-up: key: below the threshold = too weak to quantify, mostly under pKd 3.1 to 4

Binder | pKd
B1 | 4.56
B2 | 4.32
B3 | 3.68
B4 | 4.72

What follows are binders tested against T9, PDZRN3_1, Q9UPQ7 (assay: holdup assay). Conditions: plain residues with an end cap or a label only (N-terminal biotin on a linker: ado-ado).
Set-up: key: below the threshold = too weak to quantify, mostly under pKd 3.1 to 4

Binder | pKd
B1 | 3.83
B2 | 3.74
B3 | below the threshold
B4 | 3.92

These binders were tested against SCRIB_2, Q14160 (assay: holdup assay). Conditions: plain residues with an end cap or a label only (N-terminal biotin on a linker: ado-ado).
Chain of SCRIB_2, Q14160 (Q14160 857-960): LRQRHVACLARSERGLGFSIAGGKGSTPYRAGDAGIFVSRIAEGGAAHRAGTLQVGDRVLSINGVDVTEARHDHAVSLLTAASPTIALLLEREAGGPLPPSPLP
Set-up: key: below the threshold = too weak to quantify, mostly under pKd 3.1 to 4

Binder | pKd
B1 | below the threshold
B2 | 3.69
B3 | below the threshold
B4 | 4.44

Each binder was assayed against T10, SNTB1, Q13884 (assay: holdup assay). Conditions: plain residues with an end cap or a label only (N-terminal biotin on a linker: ado-ado).
Set-up: key: below the threshold = too weak to quantify, mostly under pKd 3.1 to 4

Binder | pKd
B1 | below the threshold
B2 | 4.1
B3 | below the threshold
B4 | 4.25

These binders were tested against T11, SNTG2, Q9NY99 (assay: holdup assay). Conditions: plain residues with an end cap or a label only (N-terminal biotin on a linker: ado-ado).
Set-up: key: below the threshold = too weak to quantify, mostly under pKd 3.1 to 4

Binder | pKd
B1 | below the threshold
B2 | 3.77
B3 | below the threshold
B4 | 3.84

What follows are binders tested against SNX27, Q96L92 (assay: holdup assay). Conditions: plain residues with an end cap or a label only (N-terminal biotin on a linker: ado-ado).
Set-up: key: below the threshold = too weak to quantify, mostly under pKd 3.1 to 4

Binder | pKd
B1 | below the threshold
B2 | 4.01
B3 | below the threshold
B4 | 5.16

The binders below were run against T12, TIAM2, Q8IVF5 (assay: holdup assay). Conditions: plain residues with an end cap or a label only (N-terminal biotin on a linker: ado-ado).
Set-up: key: below the threshold = too weak to quantify, mostly under pKd 3.1 to 4

Binder | pKd
B1 | below the threshold
B2 | below the threshold
B3 | 3.97
B4 | below the threshold

These binders were tested against TJP1_3, Q07157 (assay: holdup assay). Conditions: plain residues with an end cap or a label only (N-terminal biotin on a linker: ado-ado).
Chain of TJP1_3, Q07157 (Q07157 416-512): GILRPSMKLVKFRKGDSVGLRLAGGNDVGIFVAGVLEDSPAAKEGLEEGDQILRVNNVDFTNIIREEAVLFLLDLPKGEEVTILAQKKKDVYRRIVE
Set-up: key: below the threshold = too weak to quantify, mostly under pKd 3.1 to 4

Binder | pKd
B1 | below the threshold
B2 | 3.5
B3 | below the threshold
B4 | below the threshold
